The series has as its target EGFRvIII (UniProt P00533). The series is described as follows: BLI. The following applies: inverted dT at the end, BLI: association 200 s, dissociation 400 s, PBS + 0.05% Tween-20 (stated for NOTA-aptamer dissociation), protein loading at room temperature, cells: DPBS ….

A word on the Kd: it is the equilibrium constant for the complex coming apart. As to “TGAGTAAGTGAGTACCGTTTGCGATTTGGAGAACTACGCAATCA [NOTA-EGFRvIII aptamer]”, the Kd (protein on Ni-NTA probe, 125-500 nM aptamer, PBS 0.05% Tween-20, 2Nap-dU written as T at 5,9,13,18,19,20,25,26,27,35,42, 5'-amine conjugated to p-SCN-Bn-NOTA) amounted to 2.05 nM.

As for “TGAGTAAGTGAGTACCGTTTGCGATTTGGAGAACTACGCAATCA [EGFRvIII aptamer (44 nt)]”, the Kd (P = 2Nap-dU (5-[N-(2-naphthylmethyl)carboxamide]-2'-deoxyuridine), written as T at 5,9,13,18,19,20,25,26,27,35,42, T1 printed as T) came out at 0.87 nM.

The values are drawn from PMC11207964.
